System: cyno GHR
Experiment: STAT5 phosphorylation in vitro assay, cyno GHR-transfected HEK293 cells
Type: cell-based, cynomolgus monkey
Conditions: for fluorescent signal ave (phospho-STAT5): Table 8, cyno GHR-transfected cells
Protocol: This Example illustrates the effect of GHR antibodies in an in vitro STAT5 phosphorylation assay. In this Example, the ability of GHR antibodies to block GHR downstream signaling was tested in vitro using human GHR overexpressing cells and cyno GHR overexpressing cells.
GHR antagonist antibody Ab13 was tested for its ability to block STAT5 in an in vitro assay. HEK293 cells were transiently transfected with either DNA encoding full-length human GHR (SEQ ID NO: 140) or DNA encoding full-length cyno GHR (SEQ ID NO: 141). Cells were cultured in freestyle media for approximately 60 hours before testing. Cells were washed with DPBS (Dulbecco's Phosphate-Buffered Saline) and resuspended in Freestyle media, then counted using a hemocytometer. 1×10^6 cells were seeded per well in 6-well plates in 2 mls of Freestyle media. Cells were incubated for 2 hours at 37° C., then treated with 5, 50, or 500 nM Ab13 antibody in media. Cells were incubated at 37° C. with gentle mixing for 5 min with antibodies. 4.5 nM GH (Genotropin) was then added to all but control wells. Cells were incubated with GH at 37° C. with gentle mixing for 10 minutes.
Following incubation with GH, 2 ml of ice cold DPBS with 1× protease inhibitor cocktail (Roche) and 1 mM sodium orthovanadate (BioLabs) were added to each well and the plates were placed on ice. Cells were transferred to 5 ml tubes and spun down to create a cell pellet and the wash buffer was aspirated, leaving the cell pellet.
Reagents from Millipore™ MILLIPLEX® MAP Cell Signaling Buffer and Detection Kit (cat. #48-602) were used to lyse and treat the cell pellets. Millipore lysis buffer with 1× protease inhibitor cocktail and 1 mM sodium orthovanadate was added to each pellet at a volume of 200 ul/pellet. Cells were vortexed and incubated for 15 minutes at room temp with occasional vortexing. Millipore Assay buffer 2 with 1× protease inhibitor cocktail and 1 mM sodium orthovanadate was then added to the lysates at 300 ul/well.
Millipore™ MILLIPLEX® MAP Phospho STAT5N8 (Tyr694/699) MAPmate™ beads (Cat. #46-641) were resuspended in Assay Buffer 2 (from Millipore™ kit cat. #48-602) and loaded on a 96-well filter plate (provided in kit) at 25 ul/well, 25 ul/well of sample lysate was added to the wells and the beads and samples were incubated overnight at 4′C with shaking in the dark.
The liquid was then aspirated using a vacuum manifold and the remaining beads were washed using Millipore™ kit wash buffer. 25 ul Millipore™ kit detection antibody was added and incubated for 1 hour at room temperature with shaking in the dark. The detection antibody was vacuumed through and 25 ul kit streptavidin—Phycoerythrin was added and incubated in the dark for 15 min with shaking. 25 ul kit amplification buffer was then added and incubated for 15 min with shaking in the dark. The liquid was aspirated using a vacuum manifold, and the beads were resuspended in 150 ul kit assay buffer 2 and mixed on a shaker for 5 minutes before reading the plate.
The plate was read using a Luminex™ 200 instrument and fluorescent signal emitted from the samples was measured, The results of the STAT5 assay are shown in Tables 5 and 6. “Ave” indicates the average fluorescent signal, and “SEM” indicates the standard error of the mean.
Antibodies SS3 and SS1 (hIgG2Δa) were tested using a STAT5 phosphorylation assay. For the STAT5 assay, full-length human GHR overexpressing HEK293 cells or full-length cyno GHR-overexpressing HEK293 cells were cultured, counted by automated cell counter, and seeded in warm freestyle media in 12-well plates (5×10^5 cells/well in 1 ml media). Cells were allowed to settle for 3 hours at 37° C. then treated with 2.5, 5, 50, or 500 nM of SS1 or SS3 in media. […] Cells were incubated with GH at 37° C. with gentle mixing for 10 minutes.
Reagents from Millipore™ MILLIPLEX® MAP Cell Signaling Buffer and Detection Kit (cat, #48-602) were used to lyse and treat the cell pellets. […]

Chain of cyno GHR (as listed by the source): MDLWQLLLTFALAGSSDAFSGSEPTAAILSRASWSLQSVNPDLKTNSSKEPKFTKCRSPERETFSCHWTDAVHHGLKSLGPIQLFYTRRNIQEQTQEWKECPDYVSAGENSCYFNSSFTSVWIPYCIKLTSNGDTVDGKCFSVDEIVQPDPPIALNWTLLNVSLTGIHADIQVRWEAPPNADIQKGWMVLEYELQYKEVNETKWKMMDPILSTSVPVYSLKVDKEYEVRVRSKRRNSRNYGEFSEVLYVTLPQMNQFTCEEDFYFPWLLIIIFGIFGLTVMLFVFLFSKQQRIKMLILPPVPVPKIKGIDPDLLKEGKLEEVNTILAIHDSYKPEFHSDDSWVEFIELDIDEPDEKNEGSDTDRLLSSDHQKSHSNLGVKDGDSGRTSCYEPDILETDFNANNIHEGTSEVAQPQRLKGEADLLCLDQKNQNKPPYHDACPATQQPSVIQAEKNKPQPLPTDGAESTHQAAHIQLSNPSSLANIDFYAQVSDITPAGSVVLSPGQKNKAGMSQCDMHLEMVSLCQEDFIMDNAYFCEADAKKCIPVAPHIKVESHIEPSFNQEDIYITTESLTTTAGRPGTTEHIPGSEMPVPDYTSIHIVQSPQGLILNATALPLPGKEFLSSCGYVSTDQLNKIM

B1: SS1: humanized GHR antagonist antibody; VL SEQ ID NO: 7, VH SEQ ID NO: 8; hIgG2Δa heavy chain SEQ ID NO: 134, light chain SEQ ID NO: 135 (antibody)
heavy: EVQLVESGGGLVKPGGSLRLSCAASGFTFSDAWMDWVRQAPGKGLEWVAEIRSKANYHATYYAESVKGRFTISRDDSKNTLYLQMNSLKTEDTAVYYCTLIRDYWGQGTLVTVSSASTKGPSVFPLAPCSRSTSESTAALGCLVKDYFPEPVTVSWNSGALTSGVHTFPAVLQSSGLYSLSSVVTVPSSNFGTQTYTCNVDHKPSNTKVDKTVERKCCVECPPCPAPPVAGPSVFLFPPKPKDTLMISRTPEVTCVVVDVSHEDPEVQFNWYVDGVEVHNAKTKPREEQFNSTFRVVSVLTVVHQDWLNGKEYKCKVSNKGLPSSIEKTISKTKGQPREPQVYTLPPSREEMTKNQVSLTCLVKGFYPSDIAVEWESNGQPENNYKTTPPMLDSDGSFFLYSKLTVDKSRWQQGNVFSCSVMHEALHNHYTQKSLSLSPGK
light: EIVLTQSPGTLSLSPGERATLSCTATSSVSSSYLNWYQQKPGQAPRLLIYSTSNLASGIPDRFSGSGSGTDFTLTISRLEPEDFAVYYCHQYHRSTPTFGGGTKVEIKRTVAAPSVFIFPPSDEQLKSGTASVVCLLNNFYPREAKVQWKVDNALQSGNSQESVTEQDSKDSTYSLSSTLTLSKADYEKHKVYACEVTHQGLSSPVTKSFNRGEC
modifications: Humanized and/or affinity matured antibody sequence
Question: How did the “fluorescent signal ave (phospho-STAT5)” value (2.5 nM antibody + 4.5 nM GH) turn out when B1 was run?
Answer: Its value is 496.

Question: And the “fluorescent signal ave (phospho-STAT5)” value (5 nM antibody + 4.5 nM GH)?
Answer: The value was 223.

Question: And the “fluorescent signal ave (phospho-STAT5)” value (50 nM antibody + 4.5 nM GH)?
Answer: Its value is 17.

Question: What about the “fluorescent signal ave (phospho-STAT5)” value (500 nM antibody + 4.5 nM GH) of the same molecule?
Answer: Its value is 12.

Question: What about the “effect on GH-stimulated STAT5 signaling” value (cells expressing cyno GHR, 4.5 nM GH) of the same molecule?
Answer: The value was “blocked STAT5 signaling in a dose-dependent manner”.

— patent US9249224B2 (RINAT NEUROSCIENCE CORP., priority 2011, dated 2016)
